Measurements: patent US20260201034A1 (published 2026)

Target: T1, HER2 Y772dupYVMA peptide on HLA-A*02:01 (human)
T1 peptide: VMAYVMAGV
Test: multimer staining

B1: HER2 (Y772dupYVMA)/HLA-A*02:01-specific TCR (TCR, V domains shown)
Valpha: AQTVTQSQPEMSVQEAETVTLSCTYDTSESDYYLFWYKQPPSRQMILVIRQEAYKQQNATENRFSVNFQKAAKSFSLKISDSQLGDAAMYFCAYWSVPGGSYIPTFGRGTSLIVHP
Vbeta: EAQVTQNPRYLITVTGKKLTVTCSQNMNHEYMSWYRQDPGLGLRQIYYSMNVEVTDKGDVPEGYKVSRKEKRNFPLILESPSPNQTSLYFCASSLRPGTSIPGELFFGEGSRLTVL
Q: Does B1 bind?
A: recognises
